Reference: patent WO2009082624A2

Target: human IL-23 receptor (huIL-23R/huIL-12Rβ1) on Baf3/KZ134/huIL-23R/huIL-12Rβ1 Clone 6 cells (human) (UniProt P42701)
Experiment: cell-based or functional assay

human IL-23 receptor (huIL-23R/huIL-12Rβ1) on Baf3/KZ134/huIL-23R/huIL-12Rβ1 Clone 6 cells (human), sequence (chain, as listed by the source, chain 1 of 2, other chains not shown): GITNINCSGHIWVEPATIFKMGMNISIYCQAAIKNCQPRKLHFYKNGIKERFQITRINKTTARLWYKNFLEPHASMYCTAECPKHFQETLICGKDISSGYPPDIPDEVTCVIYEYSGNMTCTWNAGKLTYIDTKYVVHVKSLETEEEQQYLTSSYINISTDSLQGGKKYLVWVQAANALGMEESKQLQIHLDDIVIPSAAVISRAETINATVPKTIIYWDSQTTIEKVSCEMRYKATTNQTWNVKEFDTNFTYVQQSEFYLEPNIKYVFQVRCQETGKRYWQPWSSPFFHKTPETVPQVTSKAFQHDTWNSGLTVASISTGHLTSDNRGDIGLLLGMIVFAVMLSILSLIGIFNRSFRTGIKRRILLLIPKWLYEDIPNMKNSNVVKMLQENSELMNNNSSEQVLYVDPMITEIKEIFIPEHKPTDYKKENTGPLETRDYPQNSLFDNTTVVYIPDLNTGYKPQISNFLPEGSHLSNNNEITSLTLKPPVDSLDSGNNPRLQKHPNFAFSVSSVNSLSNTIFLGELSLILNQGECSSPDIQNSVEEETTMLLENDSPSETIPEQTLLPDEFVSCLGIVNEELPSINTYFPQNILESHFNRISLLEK

Substance: human IL-23 (p19/p40 heterodimer), recombinant (from UniProt Q9NPF7 20-189; P29460 23-328) (ligand)
- EC50, STAT3 phosphorylation in Baf3/KZ134/huIL-23R/huIL-12Rβ1 Clone 6 cells (ZymoGenetics IL-23): 0.02 nM
- EC50, STAT3 phosphorylation in Baf3/KZ134/huIL-23R/huIL-12Rβ1 Clone 6 cells (eBioscience IL-23): 0.03 nM
